Legend:
[1] = molecular target: BA.2 RBD with the S408R mutation (SARS-CoV-2); test: SPR
[2] = molecular target: SARS-CoV-2 Omicron BA.3 RBD protein with His-tag, spike residues 319-541 (SARS-CoV-2); test: SPR

Human ACE2 protein, residues 19-615 (produced by HEK293F cells, used for SPR), sequence (Q9BYF1 19-615): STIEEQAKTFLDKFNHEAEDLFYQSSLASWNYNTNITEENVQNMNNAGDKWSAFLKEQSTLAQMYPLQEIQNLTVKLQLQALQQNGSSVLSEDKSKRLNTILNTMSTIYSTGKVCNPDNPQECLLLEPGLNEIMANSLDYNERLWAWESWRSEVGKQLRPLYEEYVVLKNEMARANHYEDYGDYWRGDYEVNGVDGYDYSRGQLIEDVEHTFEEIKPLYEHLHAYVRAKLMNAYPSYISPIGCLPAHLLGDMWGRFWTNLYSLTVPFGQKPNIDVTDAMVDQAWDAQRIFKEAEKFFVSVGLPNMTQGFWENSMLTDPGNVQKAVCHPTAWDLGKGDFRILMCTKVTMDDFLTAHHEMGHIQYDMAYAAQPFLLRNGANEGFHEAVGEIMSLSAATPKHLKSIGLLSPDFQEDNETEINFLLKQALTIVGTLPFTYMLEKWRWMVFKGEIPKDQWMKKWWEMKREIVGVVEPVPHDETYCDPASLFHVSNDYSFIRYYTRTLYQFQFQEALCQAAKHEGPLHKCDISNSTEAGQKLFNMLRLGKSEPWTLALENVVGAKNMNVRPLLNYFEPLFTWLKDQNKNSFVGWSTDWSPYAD

Human ACE2 protein, residues 19-615 (produced by HEK293F cells, used for SPR) (from UniProt Q9BYF1-1 19-615) (receptor)
Kd [1]: 0.0164 µM | Kd [2]: 0.0221 µM
